The target in this experiment is human VEGF165 (human) (UniProt P15692). Nature of the experiment: population PK model estimate, Michaelis-Menten binding of free aflibercept to VEGF in plasma (in vivo, model-derived).
UniProt P15692, sequence (P15692 other isoform, or with tags, fused parts or gaps limits assumed): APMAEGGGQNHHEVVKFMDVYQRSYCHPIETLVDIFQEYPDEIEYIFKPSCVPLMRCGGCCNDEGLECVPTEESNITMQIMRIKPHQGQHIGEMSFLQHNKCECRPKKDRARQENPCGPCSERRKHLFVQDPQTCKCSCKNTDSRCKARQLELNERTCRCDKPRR

aflibercept, sequence (chain): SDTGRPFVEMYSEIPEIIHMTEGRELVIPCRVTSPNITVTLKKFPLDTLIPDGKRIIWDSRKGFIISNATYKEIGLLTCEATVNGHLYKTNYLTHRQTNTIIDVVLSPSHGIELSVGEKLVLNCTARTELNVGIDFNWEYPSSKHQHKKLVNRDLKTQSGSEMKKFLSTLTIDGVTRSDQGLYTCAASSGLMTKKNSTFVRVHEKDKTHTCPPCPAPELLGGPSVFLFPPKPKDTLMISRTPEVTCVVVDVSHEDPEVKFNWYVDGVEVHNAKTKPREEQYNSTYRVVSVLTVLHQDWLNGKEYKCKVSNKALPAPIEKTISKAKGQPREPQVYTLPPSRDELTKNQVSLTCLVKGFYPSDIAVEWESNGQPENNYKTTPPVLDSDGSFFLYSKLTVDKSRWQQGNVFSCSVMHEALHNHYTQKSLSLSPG

In the case of aflibercept (Fc fusion), the KM (concentration of free aflibercept at half of maximum binding capacity with VEGF) was 0.411 mg/L and the VMK24 (maximum binding rate of free aflibercept to VEGF) is 0.167 mg/day/L.
